In one series the target is T1, Erk1, P27361.
T1 chain: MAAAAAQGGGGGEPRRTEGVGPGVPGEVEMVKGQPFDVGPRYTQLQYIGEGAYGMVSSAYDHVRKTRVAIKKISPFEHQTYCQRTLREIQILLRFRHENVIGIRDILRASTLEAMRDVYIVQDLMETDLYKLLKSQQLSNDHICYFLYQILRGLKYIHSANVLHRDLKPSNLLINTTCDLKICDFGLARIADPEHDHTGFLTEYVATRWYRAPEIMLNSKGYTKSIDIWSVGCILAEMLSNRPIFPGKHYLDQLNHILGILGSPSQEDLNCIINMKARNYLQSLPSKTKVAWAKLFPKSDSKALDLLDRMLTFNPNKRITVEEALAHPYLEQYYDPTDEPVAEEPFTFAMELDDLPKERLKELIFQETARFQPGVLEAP

Erk2, P28482, sequence (P28482 whole entry): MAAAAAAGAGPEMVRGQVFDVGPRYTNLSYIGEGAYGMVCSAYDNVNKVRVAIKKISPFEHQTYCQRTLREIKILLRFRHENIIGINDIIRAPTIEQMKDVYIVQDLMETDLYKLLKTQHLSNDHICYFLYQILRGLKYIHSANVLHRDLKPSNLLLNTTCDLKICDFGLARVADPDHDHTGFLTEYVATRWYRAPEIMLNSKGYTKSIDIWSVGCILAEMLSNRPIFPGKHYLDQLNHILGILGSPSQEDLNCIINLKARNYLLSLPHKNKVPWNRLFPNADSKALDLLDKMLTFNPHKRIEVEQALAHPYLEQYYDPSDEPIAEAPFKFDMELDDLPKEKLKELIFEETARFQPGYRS

B1: Flag-Rab2A (protein)
chain: MAYAYLFKYIIIGDTGVGKSCLLLQFTDKRFQPVHDLTIGVEFGARMITIDGKQIKLQIWDTAGQESFRSITRSYYRGAAGALLVYDITRRDTFNHLTTWLEDARQHSNSNMVIMLIGNKSDLESRREVKKEEGEAFAREHGLIFMETSAKTASNVEEAFINTAKEIYEKIQEGVFDINNEANGIKIGPQHAATNATHAGNQGGQQAGGGCC
For the protein B1, the Erk1/2 phosphorylation result with Erk1, P27361 is reported as “Flag-Rab2A expression restored Erk1/2 phosphorylation in a dose-dependent manner”; with Erk2, P28482, “Flag-Rab2A expression restored Erk1/2 phosphorylation in a dose-dependent manner”.

(Values after US20170112792.)
